Kd data for one molecule are collected here from paper PMC6610666 (2019).

For this assay, the target named is mouse CBP TAZ1 (residues 340-439) (mouse, UniProt P45481 340-439). The assay is described as follows: ITC. Background: In ITC the heat of successive injections is recorded.
Sequence of mouse CBP TAZ1 (residues 340-439) (P45481 340-439): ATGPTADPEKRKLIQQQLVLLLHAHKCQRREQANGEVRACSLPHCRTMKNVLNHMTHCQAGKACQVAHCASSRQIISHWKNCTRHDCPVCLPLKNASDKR

Take HDYIYNLDESEGVCDLFD (domain or fragment) [human E2F4 transactivation domain (residues 390-407)]: the Kd (commonly a measure of binding affinity in units of concentration) was found to be 0.7 µM.
